From patent US20160289342A1 (Eli Lilly, published 2016)

Legend:
[1] = target: murine BAFF (murine, UniProt Q9WU72 127-309, limits assumed); assay: not described
[2] = target: FcγIIIa (V158) receptor (UniProt P08637 17-254); assay: cell-based or functional assay
[3] = target: FcγIIIa (F158) receptor (UniProt P08637 17-254); assay: cell-based or functional assay
[4] = target: T1, recombinant human soluble BAFF (human, UniProt Q9Y275 134-285); assay: MSD-SET with biotinylated recombinant human soluble BAFF, N=3
T1 construct: domain: soluble BAFF; also called human BAFF; soluble human BAFF trimer
Experimental: Binding affinity and stoichiometry of the exemplified bispecific antibody to human BAFF is measured by MSD-SET using purified recombinant human soluble BAFF (expressed from HEK293 cells). Purified recombinant BAFF is biotinylated using EZ-Link Sulfo-NHS-LC biotin reagent (Thermo Scientific, p/n. 21335).
Multi-array 96-well assay plates (Meso Scale Discovery, p/n. L15XA-3) are coated with 3.5 μg/mL of bispecific antibody and incubated overnight at 4° C. Following incubation, the plates are washed three times with PBS, then blocked using 3% Blocker A solution for 45 minutes at room temperature. The plates are then washed again with PBS. Exemplified bispecific antibody, starting at a concentration of 224 pM, is serially diluted (using 2-fold dilutions) in a V-bottom 96-well plate creating 12 different bispecific antibody concentrations. 7 pM of biotinylated recombinant BAFF is mixed with each dilution of exemplified bispecific antibody and then incubated at 37° C. for 36-48 hours (to reach equilibrium). Equilibrated samples are added to a well of the MSD multi-array 96-well assay plate previously coated with exemplified bispecific antibody; samples are mixed for 2.5 minutes, and then washed three times with PBS. […] 1× Read Buffer T (Meso Scale Discovery, p/n. R92TC-1) is added to each well and plates are read on a MSDSI6000 plate reader (Meso Scale Discovery, Rockville Md.). […]

Sequence of murine BAFF (Q9WU72 127-309 limits assumed): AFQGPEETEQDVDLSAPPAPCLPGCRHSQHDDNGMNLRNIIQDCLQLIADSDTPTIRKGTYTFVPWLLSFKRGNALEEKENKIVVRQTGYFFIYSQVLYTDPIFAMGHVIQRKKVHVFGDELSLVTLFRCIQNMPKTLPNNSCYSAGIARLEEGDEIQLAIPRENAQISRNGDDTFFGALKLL
Sequence of FcγIIIa (V158) receptor (P08637 17-254 F176V): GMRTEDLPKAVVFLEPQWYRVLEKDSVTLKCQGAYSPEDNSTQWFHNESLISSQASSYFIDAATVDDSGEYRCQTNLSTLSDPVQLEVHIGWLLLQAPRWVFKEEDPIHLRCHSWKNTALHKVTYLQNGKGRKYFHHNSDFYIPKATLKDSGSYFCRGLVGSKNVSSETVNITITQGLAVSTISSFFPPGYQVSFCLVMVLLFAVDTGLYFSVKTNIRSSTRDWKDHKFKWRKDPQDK
Sequence of FcγIIIa (F158) receptor (P08637 17-254): as the sequence (P08637 17-254 F176V) above, with V160F counted along it

- fold reduction in binding as compared to human BAFF [1]: ~250 fold
- EC50 of NFAT-luciferase reporter signal (ADCC), WIL2-S + Jurkat (V158) [2]: 4.61 pM
- EC50 of NFAT-luciferase reporter signal (ADCC), WIL2-S + Jurkat (F158) [3]: 31.4 pM
- Kd [4]: 0.3 pM
B1: exemplified bispecific antibody of Table 1 (anti-CD20 IgG1 mAb with anti-BAFF scFv linked at the N-terminus of each heavy chain) (bispecific antibody)
heavy: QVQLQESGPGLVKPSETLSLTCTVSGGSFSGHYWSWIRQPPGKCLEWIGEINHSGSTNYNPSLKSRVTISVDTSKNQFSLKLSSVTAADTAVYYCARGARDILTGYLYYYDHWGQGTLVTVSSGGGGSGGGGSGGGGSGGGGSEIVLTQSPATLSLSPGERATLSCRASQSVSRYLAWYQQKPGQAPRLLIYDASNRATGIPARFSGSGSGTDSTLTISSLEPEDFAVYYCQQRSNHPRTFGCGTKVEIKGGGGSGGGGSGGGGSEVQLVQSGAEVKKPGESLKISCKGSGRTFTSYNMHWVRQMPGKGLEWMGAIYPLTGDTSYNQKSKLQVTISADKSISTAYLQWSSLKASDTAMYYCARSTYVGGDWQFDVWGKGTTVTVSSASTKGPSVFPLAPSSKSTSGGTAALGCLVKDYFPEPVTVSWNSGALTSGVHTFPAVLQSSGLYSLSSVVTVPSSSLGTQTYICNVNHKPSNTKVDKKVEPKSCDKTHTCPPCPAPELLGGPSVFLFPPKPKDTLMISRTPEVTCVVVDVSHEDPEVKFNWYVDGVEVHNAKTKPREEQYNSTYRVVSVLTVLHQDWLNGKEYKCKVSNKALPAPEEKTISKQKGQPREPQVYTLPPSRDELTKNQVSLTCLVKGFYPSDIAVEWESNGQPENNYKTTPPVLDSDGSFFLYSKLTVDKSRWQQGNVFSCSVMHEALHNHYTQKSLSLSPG
light: EIVLTQSPGTLSLSPGERATLSCRASSSVPYIHWYQQKPGQAPRLLIYATSALASGIPDRFSGSGSGTDFTLTISRLEPEDFAVYYCQQWLSHPPTFGQGTKLEIKRTVAAPSVFIFPPSDEQLKSGTASVVCLLNNFYPREAKVQWKVDNALQSGNSQESVTEQDSKDSTYSLSSTLTLSKADYEKHKVYACEVTHQGLSSPVTKSFNRGEC
modifications: glycosylated at asparagine residue 566 of SEQ ID NO:1
notes: also called Exemplified Bispecific Ab; exemplified antibody
